From the supplement of paper PMC9233669
Fewer inactive variants are shown than the library holds.

What was measured:
biotinyl-Val-oxazolone = assay: self-aminoacylation, catalytic enhancement (BVO) (fold over background); higher = more active; k-Seq, kA / k0A0; sequences stand for … in GGGAAUGGAUCCACAUCUACGAAUUC…UUCACUGCAGACUUGACGAAGCUG
How it was run: (§1)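 Mutagenized RNA pools with a 21-nt variable region (0.43 μM) were reacted with each biotinyl-aminoacyl-oxazolone at 2–1250 μM for 90 minutes at room temperature, in 50 μL HEPES/NaCl/KCl/MgCl2/CaCl2 buffer containing 5% acetonitrile at pH 6.9–7.0. RNA captured on streptavidin was quantified by triplicate qPCR and by Illumina sequencing. The fraction reacted for each sequence was fit to a pseudo-first-order model with bootstrapping, and catalytic enhancement is the median kA divided by the uncatalyzed rate, taken as the low-activity peak of a bimodal Gaussian fit.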

biotinyl-Phe-oxazolone = assay: self-aminoacylation, catalytic enhancement (BFO) (fold over background); higher = more active; k-Seq, kA / k0A0; sequences stand for … in GGGAAUGGAUCCACAUCUACGAAUUC…UUCACUGCAGACUUGACGAAGCUG
How it was run: as §1

biotinyl-Ile-oxazolone = assay: self-aminoacylation, catalytic enhancement (BIO) (fold over background); higher = more active; k-Seq, kA / k0A0; sequences stand for … in GGGAAUGGAUCCACAUCUACGAAUUC…UUCACUGCAGACUUGACGAAGCUG
How it was run: as §1

biotinyl-Met-oxazolone = assay: self-aminoacylation, catalytic enhancement (BMO) (fold over background); higher = more active; k-Seq, kA / k0A0; sequences stand for … in GGGAAUGGAUCCACAUCUACGAAUUC…UUCACUGCAGACUUGACGAAGCUG
How it was run: as §1

biotinyl-Leu-oxazolone = assay: self-aminoacylation, catalytic enhancement (BLO) (fold over background); higher = more active; k-Seq, kA / k0A0; sequences stand for … in GGGAAUGGAUCCACAUCUACGAAUUC…UUCACUGCAGACUUGACGAAGCUG
How it was run: as §1

biotinyl-Trp-oxazolone = assay: self-aminoacylation, catalytic enhancement (BWO) (fold over background); higher = more active; k-Seq, kA / k0A0; sequences stand for … in GGGAAUGGAUCCACAUCUACGAAUUC…UUCACUGCAGACUUGACGAAGCUG
How it was run: as §1

| Sequence | self-aminoacylation (biotinyl-Val-oxazolone) | self-aminoacylation (biotinyl-Phe-oxazolone) | self-aminoacylation (biotinyl-Ile-oxazolone) | self-aminoacylation (biotinyl-Met-oxazolone) | self-aminoacylation (biotinyl-Leu-oxazolone) | self-aminoacylation (biotinyl-Trp-oxazolone) |
| --- | --- | --- | --- | --- | --- | --- |
| AAGUUUGCUAAUAGCCGCACG [Fam3.1 aminoacylation ribozyme variant] | 1.21 | 1.41 | 1.31 | 1.08 | 1.32 | 2.52 |
| AAGUUUGCUAAUAGGCGCAAU [Fam3.1 aminoacylation ribozyme variant] | 1.58 | 1.52 | 1.6 | 1.71 | 1.46 | 0.968 |
| AAGUUUGCUAAUAGGCGCACG [Fam3.1 aminoacylation ribozyme variant] | 0.833 | 2.42 | 0.981 | 0.568 | 0.865 | 0.485 |
| AAGUUUGCUAAUAGGCGGAAG [Fam3.1 aminoacylation ribozyme variant] | 0.89 | 0.916 | 0.806 | 0.721 | 0.675 | 0.922 |
| AAGUUUGCUAAUAGUACCAAG [Fam3.1 aminoacylation ribozyme variant] | 1.15 | 1.41 | 1.14 | 1.22 | 0.791 | 0.838 |
| AAGUUUGCUAAUAGUAGCCAG [Fam3.1 aminoacylation ribozyme variant] | 0.769 | 1.04 | 0.868 | 0.77 | 0.78 | 2.24 |
| AAGUUUGCUAAUAGUAGCGAG [Fam3.1 aminoacylation ribozyme variant] | 1 | 1.65 | 1.21 | 0.995 | 0.962 | 1.14 |
| AAGUUUGCUAAUAGUCACAAA [Fam3.1 aminoacylation ribozyme variant] | 1.09 | 1.34 | 1.21 | 1.32 | 1.22 | 1.15 |
| AAGUUUGCUAAUAGUCACAAC [Fam3.1 aminoacylation ribozyme variant] | 0.621 | 1.47 | 0.673 | 0.6 | 0.637 | 0.593 |
| AAGUUUGCUAAUAGUCCAAAG [Fam3.1 aminoacylation ribozyme variant] | 1.18 | 3.72 | 1.21 | 1.34 | 0.966 | 1.75 |
| AAGUUUGCUAAUAGUCCGAAG [Fam3.1 aminoacylation ribozyme variant] | 1.02 | 4.75 | 1.1 | 1.02 | 0.863 | 1.89 |
| AAGUUUGCUAAUAGUCGCAAG [Fam3.1 aminoacylation ribozyme variant] | 1.15 | 32 | 1.33 | 1.47 | 1.01 | 7.99 |
| AAGUUUGCUAAUAGUCGCACC [Fam3.1 aminoacylation ribozyme variant] | 0.756 | 1.29 | 0.81 | 0.569 | 0.718 | 0.849 |
| AAGUUUGCUAAUAGUCGCAUU [Fam3.1 aminoacylation ribozyme variant] | 1.22 | 1.63 | 1.37 | 1.25 | 1.27 | 1.29 |
| AAGUUUGCUAAUAGUCGCGCG [Fam3.1 aminoacylation ribozyme variant] | 2.94 | 20.9 | 3.47 | 3.95 | 4.77 | 5.74 |
| AAGUUUGCUAAUAGUCGCUAG [Fam3.1 aminoacylation ribozyme variant] | 0.852 | 1.68 | 0.852 | 0.813 | 0.809 | 1.05 |
| AAGUUUGCUAAUAGUCGGUAG [Fam3.1 aminoacylation ribozyme variant] | 0.771 | 1.66 | 0.974 | 0.878 | 1.03 | 0.993 |
| AAGUUUGCUAAUAGUCUCCAG [Fam3.1 aminoacylation ribozyme variant] | 0.947 | 1.59 | 1.1 | 0.855 | 0.909 | 1.02 |
| AAGUUUGCUAAUAGUGGCAAU [Fam3.1 aminoacylation ribozyme variant] | 1.16 | 1.43 | 1.08 | 1.16 | 0.961 | 0.811 |
| AAGUUUGCUAAUAGUGGCGAG [Fam3.1 aminoacylation ribozyme variant] | 0.88 | 1.2 | 0.939 | 0.875 | 1.09 | 0.531 |
| AAGUUUGCUAAUAGUGGCUAG [Fam3.1 aminoacylation ribozyme variant] | 0.862 | 1.52 | 0.811 | 0.777 | 0.65 | 0.748 |
| AAGUUUGCUAAUAGUGGUAAG [Fam3.1 aminoacylation ribozyme variant] | 0.801 | 0.868 | 0.992 | 0.769 | 0.788 | 0.724 |
| AAGUUUGCUAAUAGUUGCAAC [Fam3.1 aminoacylation ribozyme variant] | 0.83 | 0.862 | 1.06 | 0.933 | 0.853 | 0.841 |
| AAGUUUGCUAAUAUUCGCAAA [Fam3.1 aminoacylation ribozyme variant] | 1.32 | 0.994 | 1.2 | 1.75 | 1.25 | 2.04 |
| AAGUUUGCUAAUAUUCGCAAU [Fam3.1 aminoacylation ribozyme variant] | 1.05 | 1.32 | 1.31 | 1.11 | 1.16 | 1.33 |
